Source: the domain aggregation screens of Martell et al. (2025)

Assay: soluble fraction after stress (log2 fold change); higher = more stays soluble; pooled small domains, quantitative proteomics
Conditions: stress: 50 degC
How it was run: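 Quantitative proteomics served as the high-throughput read-out for pooled custom libraries of small protein domains. Each was stressed at 50°C. Aggregation propensity is expressed as the base-two log fold change in soluble protein after stress. A higher value means a larger share of the protein remains in solution.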

| Sequence | soluble fraction (log2) |
| --- | --- |
| HMSELSGSQLKAIREEKHIPLEQVASATRIRLSLLEALEMDEYAELGSRTQARGFLKLYADFLGVPFEA | 0.0345 |
| HMGELDFYEEMRDDYLTGKIWNVGEIVEAKGMIGEIVRKGTNYISFVTDDNKVHKAWLHEIKL | -0.634 |
| HMPGLDTTILSDILSLKKELPSRSAAKILIMLILAKRIEEGSLNLRTINRILNQYGYTRESLL | 0.0736 |
| HMKLIRIPFILTEGPDSQKITIDVDGDEEFRLGDVFEEDDKLWTVNQILVSGERKAKRSMAGEVMRISALR | -1.26 |
| HMPLLKIGAQGHDVRVVQEALQRAGYAIEGVTGIFDEATREAVLAFQRDQQLTESGTVDRATWHALRR | 0.134 |
| HMSIEIKTIDVKHADLFQLQDILRNLYPELNIVPDQRNNKLILQGKRELLVEAERLTLQLDTE | 0.0556 |
| HMADYYETLGVERTASEEDIKRAYRKMSRKYHPDIAGPEFEEKFKEVNTAYEVLSDPDKRRMYDAGVDPND | 0.0489 |
| HMRPEKLVLKALRGAHGPLSAEEVAGRIEADGGAGLDVARVEHVLGQLERSGTVAALGGGKYLALR | 0.281 |
| HMRDIGKNIRYYREKKGYSQEQLAQLLFVTRQTVSNYETSRSRPDVETLVKLAGLLDIDVTDLIYGPR | -0.651 |
| HMILVLKPGAPEDLKNELIHDIEKMGLRVHVSVGEGTTIIGLIGDTSKISKYTFSSYEIVSNVLRVT | -0.0106 |
| HMGNASQAARRQRIVDAALELLQDRPYDQIQMRDVAEGAGVALGTLYRYFPSKEQLFAHVLVE | 0.027 |
| HMNTEKRVFAGVENTRLDHFLVEQFPEFSRTFIQQMIKSANVIVNGNIEKASYKLREGDTIMTRPM | -0.253 |
| HMREPIPVPSRPIRAGDLVEIPGTNRPAEVTAVKGDRLVLKAGVLSMTVKNDEVRLIEDDERAAM | 0.0715 |
| HMITGSIQPKNGKYYAVLNLYDHTGKRRPKWVSTGYTVKGNKKKAQEVLNELTRRYSAQLPPSK | -0.512 |
| HMDTPPGLSPEEQAIIDIITTRGDATINELTASIDIPTPRLMGMLVDMEFRSLIAAIPGGRYRI | -1.16 |
| HMDSSALEPIVDQIIADNPKQVEQFQAGKTKVLGFFVGQVMKQTDGTANPKQVNELVAARLKSA | 0.181 |
| HMLPKNITNTIDHWIQKFPQGKQRSAIIAALHAVQHHNKGFLTNDLLNQVADYIDVPKMNVYEVATFYSM | 0.0843 |
| HMNGTGSVYKLSGKRRNPWRAVVTNGWAYNEEKGKLVQNRVTIGYYHTRDEAIQAIANYNSSP | -1.52 |
| HMIEFYTMQDMFYFKLTGDNTSRERREALGKILGIGYGNATQMVSRLNNYGISKEEFSKAIEEIEKQLEA | -2.8 |

| Sequence | soluble fraction (log2) |
| --- | --- |
| HMHDYNTIVGVIEMRDKNIPLTSIRQRYGIGYSGIDLILTRYKDSGLTLKEFLALDPSQAEELIYPPK | -0.622 |
| HMDPKISWESDEKLSANIGHYENSIKPLMGNKYLIELSQLKDKIESHPWVARATIKRIFWNKIHIQLESHD | 0.00717 |
| HMLPKAERREQLMAVARSVFAEQGYHTTSMEIIAETAGVSKPLLYQHFPSKLDLYLALLDAGID | -1.56 |
| HMFERFIFTDEVYIRLKKSGLPQTTLRPLLEIHGKSFDHNEINIILSGLIPNQDFERYAQIIKSHSRF | -3.82 |
| HMVDPAFLAWQQKPENTWFGTDRRKTALAIAIAEEIRNDPANSNLVGAAFYARVAEETEETLN | -0.628 |
| HMTAVNEHELMNQFKLSLGYANGDDPQTKLSTDEKNDFMRFKEWATAMTKDSKMGKDPDYLKKLAVQWTLK | 0.214 |
| HMYDPVNEIGRVLKKIRQERSLTLDNVAEITGVSKTMLGQIERGVSVPTISVLWKIAKGLQVSLSTLLNE | -0.826 |
| HMVAREAYTTQNLTDVFSISRQAVEKRAKREGWQSVPRKGRGGGKLWVVSSMPAETRDLLASLLLRK | -0.609 |
| HMQVPWYQRLKEKRLEYGVSQNKLATHIGISRQYMSEIETGKVTPSDSLQATLFDILEQFNPDA | -0.363 |
| HMSPRAIYVTTSDLNMRMQPSPNAYKRGVAPRGTELLVVEWGDDWSKVIFEGDTAYAASRYLSYVKDEP | -0.487 |
| HMRGAARRDRAVGERAVSKDTILDATRALLRKGSALEIRAIDIAEESGLSRQTVFQYYPVIRLIFFELSD | 0.138 |
| HMKNSMANVQARREKILSAVDQSEPVAVEGLAQRFNVSITTLRRDLKALSDMGQVKWHHGLVERT | -0.173 |
| HMGSKKAIPYVSGMSETEAQNELEEAGFKVTSSFQYDDSVESGKVISTTPEAGTKAEKGSTVTMLVSQGSN | -0.114 |
| HMEGTVQQDKFDAYKAKFEDAISNDLNTSMAITIIYDLLKDDMNDKTKLALINDFDKVLSLNLTTA | -0.255 |
| HMEVVVPDFEKIYIRDLDKFVEGHNVRYEIVDSIYNLEKDKGTVVDQDPEPGSKVKHGRVIYLTVNAML | -0.207 |
| HMYMTTADADMWKYVNTGRYNNDIQLMEEYKNRSMDSFEVITPEQQRKYNKAAMNLNSYYAWADPSYKPNP | -0.257 |
| HMEETEVPPVTGYEQSKASEVLTGKGLIPDIITVADEETAAGYVIRTDPASGEKVPSGTTVKVYVSSGP | 0.159 |
| HMRVDLVQRLARHGLSPRQSAVAGGVLRGLDNGEISRQLYIAEQTVKDHLHEIYHRLGVHTRTELLIKVLG | -1.6 |
| HMARRSRADAVRNREALIDAAKAAFTEAGPDVSLEEIARRAGVGIGTLYRHFPTRDAVIEAVYR | 0.0559 |
